Data set [1] has as its target T1, wild type human porphobilinogen synthase (PBGS), parent construct N59/C162A.
T1 chain: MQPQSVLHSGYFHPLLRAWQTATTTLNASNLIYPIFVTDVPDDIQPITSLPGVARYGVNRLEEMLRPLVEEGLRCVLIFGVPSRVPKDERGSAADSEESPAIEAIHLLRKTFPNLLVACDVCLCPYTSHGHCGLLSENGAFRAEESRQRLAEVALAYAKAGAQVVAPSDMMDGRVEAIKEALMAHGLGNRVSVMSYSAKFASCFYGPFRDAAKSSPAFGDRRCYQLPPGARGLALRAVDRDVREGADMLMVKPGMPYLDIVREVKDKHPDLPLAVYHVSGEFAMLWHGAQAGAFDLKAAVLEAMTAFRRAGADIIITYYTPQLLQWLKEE

B1: pea (Pisum sativum) porphobilinogen synthase (protein)
chain: SLPIQRRPRRNRRSPALRSAFQETTLSPANFVYPLFIHEGEEDTPIGAMPGCYRLGWRHGLLEEVAKARDVGVNSVVLFPKIPDALKTPTGDEAYNEDGLVPRSIRLLKDKYPDLIIYTDVALDPYSSDGHDGIVREDGVIMNDETVHQLCKQAVAQARAGADVVSPSDMMDGRVGAMRVALDAEGFQHVSIMSYTAKYASSFYGPFREALDSNPRFGDKKTYQMNPANYREALTEMREDESEGADILLVKPGLPYLDIIRLLRDNSPLPIAAYQVSGEYSMIKAGGALKMIDEEKVMMESLLCLRRAGADIILTYFALQAARTLCGEKR
Regarding B1, in the data set with P30124, the “K(0.5) of the protein concentration dependent specific activity” value is recorded as “K(0.5) of 0.064 µM PBGS”, the “K(0.5) of the protein concentration dependent specific activity in the presence of 5 µM morphlock-1” value is reported as “more than doubles the K(0.5) to 0.134 µM pea PBGS”, the “protein concentration giving half maximal specific activity” value is recorded as “half maximal activity at 3.5 µg/ml PBGS” and the “protein concentration giving half maximal specific activity after 30 minutes with 30 µM rosmarinic acid” value was “half maximal activity at 13.5 µg/ml PBGS”. Besides, in the data set with P30124, the “specific activity as a function of pea PBGS concentration, DMSO control (filled circles)” value is reported as “rises from near 10 at about 0.008 µM to about 250 at about 0.8 µM; fitted line levels at about 275 µmol h-1 mg-1 toward 10 µM (log axis); the half-maximal K(0.5) is printed in the text”; the “specific activity as a function of pea PBGS concentration, with morphlock-1 (open circles)” value is given as “curve shifted to the right of the DMSO curve: near 0 at about 0.008 µM, about 240 at about 0.8 µM; fitted line reaches about 290 µmol h-1 mg-1 at 10 µM (log axis); the half-maximal K(0.5) is printed in the text”; the “specific activity as a function of pea PBGS subunit concentration” value is “rises from about 5 at 0.001 µM to a plateau of about 220 at 0.7-1 µM on a log axis”.

B2: human PBGS variant F12L (protein)
chain: MQPQSVLHSGYLHPLLRAWQTATTTLNASNLIYPIFVTDVPDDIQPITSLPGVARYGVNRLEEMLRPLVEEGLRCVLIFGVPSRVPKDERGSAADSEESPAIEAIHLLRKTFPNLLVACDVCLCPYTSHGHCGLLSENGAFRAEESRQRLAEVALAYAKAGAQVVAPSDMMDGRVEAIKEALMAHGLGNRVSVMSYSAKFASCFYGPFRDAAKSSPAFGDRRCYQLPPGARGLALRAVDRDVREGADMLMVKPGMPYLDIVREVKDKHPDLPLAVYHVSGEFAMLWHGAQAGAFDLKAAVLEAMTAFRRAGADIIITYYTPQLLQWLKEE
Regarding B2, in data set [1], the “specific activity over time after addition of ALA (filled triangles, Pool I)” value is “rises from about 1 at 0 min (fit) and about 2.5 at 15 min to a plateau of about 7.5 µmole h-1 mg-1 by 200-270 min”; the “specific activity over time after addition of ALA (filled triangles, Pool II)” value is “rises from about 18.3 at about 2 min to a plateau of about 22.2-22.4 µmole h-1 mg-1 from 30-45 min up to 150 min”.

The record behind these values is US20090048324.
